Experimental data reported in publication PMC10125973, “A small secreted protein NICOL regulates lumicrine-mediated sperm maturation and male fertility” (Nature Communications, 2023).

Target: T1, neural epidermal growth factor-like like 2 (NELL2), C-terminally 6xHis-tagged recombinant (UniProt Q61220 25-819)
T1 construct: NELL2, secreted protein; also called purified recombinant NELL2; source: human 293-F cells, transiently expressed, purified from conditioned medium (ammonium sulphate, Ni-NTA, PD-10)
T1 sequence (looked up): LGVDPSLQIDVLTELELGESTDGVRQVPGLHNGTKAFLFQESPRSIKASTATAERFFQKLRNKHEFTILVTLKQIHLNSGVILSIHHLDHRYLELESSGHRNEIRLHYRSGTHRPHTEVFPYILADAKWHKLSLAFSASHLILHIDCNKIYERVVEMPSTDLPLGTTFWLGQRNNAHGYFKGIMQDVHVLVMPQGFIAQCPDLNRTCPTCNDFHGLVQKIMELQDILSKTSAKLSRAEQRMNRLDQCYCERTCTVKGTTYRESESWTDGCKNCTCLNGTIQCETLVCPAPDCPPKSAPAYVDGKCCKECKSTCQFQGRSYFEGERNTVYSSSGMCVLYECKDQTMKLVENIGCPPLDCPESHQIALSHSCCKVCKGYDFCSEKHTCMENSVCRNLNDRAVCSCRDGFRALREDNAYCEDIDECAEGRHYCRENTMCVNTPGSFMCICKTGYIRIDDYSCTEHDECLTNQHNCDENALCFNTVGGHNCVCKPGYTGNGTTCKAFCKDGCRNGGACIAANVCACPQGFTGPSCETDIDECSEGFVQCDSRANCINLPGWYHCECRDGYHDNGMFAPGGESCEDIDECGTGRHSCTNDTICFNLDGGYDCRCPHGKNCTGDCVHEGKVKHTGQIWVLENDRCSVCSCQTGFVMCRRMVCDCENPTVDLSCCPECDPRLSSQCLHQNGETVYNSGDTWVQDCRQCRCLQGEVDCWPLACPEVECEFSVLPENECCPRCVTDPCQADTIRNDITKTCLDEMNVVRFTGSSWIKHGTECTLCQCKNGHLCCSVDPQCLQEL
Assay: SPR; purified NELL2 immobilised on series S sensor chip CM5; purified NICOL in PBS as analyte; Biacore T200
Conditions: both partners purified

Kd: 87 nM
koff: 0.0062 s⁻¹
kon: 72000 M⁻¹ s⁻¹
B1: NELL2-interacting cofactor for lumicrine signalling (NICOL), 6xHis-tagged recombinant (natural protein, mouse, UniProt Q3UR78 29-90, looked up)
chain: EPATGSAVPAQSRPCVDCHAFEFMQRALQDLRKTAYSLDARTETLLLQAERRALCACWPAGR
notes: mouse NICOL (predicted gene Gm1673, ortholog of human C4orf48), small secreted protein; cDNA encoding mouse NICOL followed by 6xHis; purified from conditioned medium, so without its signal peptide; also called purified recombinant NICOL protein; source: human 293-F cells, transiently expressed, purified from conditioned medium (ammonium sulphate, Ni-NTA, PD-10)
